Experimental data reported in US20220010021A1 (Sanofi, published 2022).
Changes are numbered by the printed parent chain.

How the values were obtained:
human beta-Klotho (KLB) = target: T1, human beta-Klotho (KLB) (human, UniProt Q86Z14 53-997); assay: BLI off-rate screen (Octet), Ab captured via Fc;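 further: antibody supernatants applied at 25 µg/mL, dissociation monitored over 1800 s in D-PBS with 0.1% BSA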
T1 construct: also called human KLB
T1 sequence (looked up): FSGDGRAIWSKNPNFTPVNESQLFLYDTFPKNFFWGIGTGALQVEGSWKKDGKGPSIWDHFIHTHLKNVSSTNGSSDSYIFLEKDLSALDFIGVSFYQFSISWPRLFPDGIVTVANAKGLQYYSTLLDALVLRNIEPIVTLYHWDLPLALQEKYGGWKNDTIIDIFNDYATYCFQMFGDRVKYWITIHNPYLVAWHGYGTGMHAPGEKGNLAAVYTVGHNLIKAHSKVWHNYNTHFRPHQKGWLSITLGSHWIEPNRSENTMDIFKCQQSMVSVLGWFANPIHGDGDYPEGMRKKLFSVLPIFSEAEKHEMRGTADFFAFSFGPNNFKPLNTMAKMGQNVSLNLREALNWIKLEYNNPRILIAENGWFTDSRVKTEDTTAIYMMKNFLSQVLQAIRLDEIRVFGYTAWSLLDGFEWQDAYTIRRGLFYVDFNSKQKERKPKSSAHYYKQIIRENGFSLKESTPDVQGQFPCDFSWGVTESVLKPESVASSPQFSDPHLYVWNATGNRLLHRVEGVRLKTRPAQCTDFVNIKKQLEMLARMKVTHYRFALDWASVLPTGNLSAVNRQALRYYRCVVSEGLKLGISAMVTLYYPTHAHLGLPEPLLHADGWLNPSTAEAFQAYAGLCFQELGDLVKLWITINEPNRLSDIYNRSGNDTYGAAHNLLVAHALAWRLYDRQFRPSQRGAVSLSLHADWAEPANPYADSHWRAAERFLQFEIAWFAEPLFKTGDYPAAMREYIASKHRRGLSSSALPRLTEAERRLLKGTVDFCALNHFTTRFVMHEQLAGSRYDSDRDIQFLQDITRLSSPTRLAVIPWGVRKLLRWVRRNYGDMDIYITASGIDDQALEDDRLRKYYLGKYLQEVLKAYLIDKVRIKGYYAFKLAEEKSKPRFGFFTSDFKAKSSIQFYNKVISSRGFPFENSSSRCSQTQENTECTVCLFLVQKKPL

[1] = target: human FGFR1c/KLB cell surface receptor complex on iLite FGF21 reporter cells (human, UniProt P11362 22-822; Q86Z14 1-1044); assay: cell-based or functional assay; on Mean E max (%): reference of the scale not given here
Sequence of human FGFR1c/KLB cell surface receptor complex on iLite FGF21 reporter cells (P11362 22-822, chain 1 of 2): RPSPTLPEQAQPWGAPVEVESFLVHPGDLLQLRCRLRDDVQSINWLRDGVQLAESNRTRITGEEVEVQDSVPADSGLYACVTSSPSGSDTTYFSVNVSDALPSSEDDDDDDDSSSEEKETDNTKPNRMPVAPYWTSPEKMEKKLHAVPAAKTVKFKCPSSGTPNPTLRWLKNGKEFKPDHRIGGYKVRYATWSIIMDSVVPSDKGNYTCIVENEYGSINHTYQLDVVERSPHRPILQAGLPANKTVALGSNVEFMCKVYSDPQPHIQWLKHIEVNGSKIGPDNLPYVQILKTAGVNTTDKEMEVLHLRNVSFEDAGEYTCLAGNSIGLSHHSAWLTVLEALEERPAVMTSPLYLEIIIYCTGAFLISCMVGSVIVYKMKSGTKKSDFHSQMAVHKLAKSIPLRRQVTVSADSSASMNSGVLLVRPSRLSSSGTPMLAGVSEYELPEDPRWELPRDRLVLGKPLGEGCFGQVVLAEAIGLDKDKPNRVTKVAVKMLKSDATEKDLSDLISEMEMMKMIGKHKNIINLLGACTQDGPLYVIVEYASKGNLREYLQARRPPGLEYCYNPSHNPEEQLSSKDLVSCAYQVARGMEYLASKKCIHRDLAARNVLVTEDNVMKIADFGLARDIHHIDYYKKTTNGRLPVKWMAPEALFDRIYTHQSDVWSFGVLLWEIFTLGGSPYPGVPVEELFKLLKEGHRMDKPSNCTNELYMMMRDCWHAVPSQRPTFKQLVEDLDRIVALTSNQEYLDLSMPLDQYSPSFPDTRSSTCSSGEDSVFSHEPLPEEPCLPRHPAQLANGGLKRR
Sequence of human FGFR1c/KLB cell surface receptor complex on iLite FGF21 reporter cells (Q86Z14 whole entry, chain 2 of 2): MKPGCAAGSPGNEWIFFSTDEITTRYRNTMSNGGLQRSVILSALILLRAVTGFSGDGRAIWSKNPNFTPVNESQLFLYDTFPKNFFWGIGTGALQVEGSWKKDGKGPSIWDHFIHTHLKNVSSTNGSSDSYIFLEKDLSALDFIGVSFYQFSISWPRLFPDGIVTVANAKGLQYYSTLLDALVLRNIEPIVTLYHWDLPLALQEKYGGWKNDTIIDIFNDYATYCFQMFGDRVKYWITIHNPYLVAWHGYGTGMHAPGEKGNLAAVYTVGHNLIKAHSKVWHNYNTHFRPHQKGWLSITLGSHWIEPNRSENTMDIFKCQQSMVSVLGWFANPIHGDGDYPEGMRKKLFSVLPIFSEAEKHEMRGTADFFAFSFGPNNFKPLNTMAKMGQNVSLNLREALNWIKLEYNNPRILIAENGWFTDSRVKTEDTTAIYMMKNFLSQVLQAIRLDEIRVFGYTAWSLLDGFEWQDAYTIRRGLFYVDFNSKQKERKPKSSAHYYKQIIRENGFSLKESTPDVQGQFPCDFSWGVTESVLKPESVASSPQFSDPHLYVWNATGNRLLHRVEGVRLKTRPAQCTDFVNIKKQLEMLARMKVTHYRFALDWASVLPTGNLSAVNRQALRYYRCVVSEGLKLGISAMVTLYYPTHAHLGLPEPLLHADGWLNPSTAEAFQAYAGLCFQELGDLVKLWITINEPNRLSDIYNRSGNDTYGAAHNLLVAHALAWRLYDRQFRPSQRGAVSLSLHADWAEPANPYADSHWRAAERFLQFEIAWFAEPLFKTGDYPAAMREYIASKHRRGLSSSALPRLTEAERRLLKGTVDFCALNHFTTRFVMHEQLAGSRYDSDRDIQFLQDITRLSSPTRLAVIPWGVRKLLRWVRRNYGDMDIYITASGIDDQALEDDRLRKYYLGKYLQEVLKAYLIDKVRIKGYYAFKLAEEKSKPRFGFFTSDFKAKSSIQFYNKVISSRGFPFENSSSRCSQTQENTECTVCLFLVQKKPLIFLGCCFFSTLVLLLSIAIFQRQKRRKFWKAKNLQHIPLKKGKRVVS

B1: 16H7 variant, light chain N25K (antibody, human IgG4 S228P, lambda, V domains shown)
VH: not shown
VL: SYVLTQPPSVSVAPGQTARITCGGKNIGSESVHWYQQKPGQAPVLVVYDDSDRPSGIPERFSGSNSGNTATLTISRVEAGDEADYYCQVWDGNSDHVVFGGGTKLTVLG
notes: IgG4 backbone
koff (human beta-Klotho (KLB)): 3.3e-05 s⁻¹
Mean E max (%) [1]: 110%
Mean EC50 [1]: 182 pM

B2: 16H7 variant, light chain N25Y (antibody, human IgG4 S228P, lambda, V domains shown)
VH: not shown
VL: B1 VL with K25Y
notes: IgG4 backbone
koff (human beta-Klotho (KLB)): 3.1e-05 s⁻¹
Mean E max (%) [1]: 104%
Mean EC50 [1]: 99 pM

B3: 16H7 variant, light chain N26S (antibody, IgG4, V domains shown)
VH: not shown
VL: B1 VL with K25N, N26S
notes: IgG4 backbone; copies: 2 + 2
koff (human beta-Klotho (KLB)): 1e-07 s⁻¹
Mean E max (%) [1]: 101%
Mean EC50 [1]: 118 pM

B4: 16H7 variant, light chain P54F (antibody, human IgG4 S228P, lambda, V domains shown)
VH: not shown
VL: B1 VL with K25N, P54F
notes: IgG4 backbone
koff (human beta-Klotho (KLB)): 0.00012 s⁻¹
Mean E max (%) [1]: 105%
Mean EC50 [1]: 143 pM

B5: 16H7 variant, light chain N26C (antibody, IgG4, V domains shown)
VH: not shown
VL: B1 VL with K25N, N26C
notes: IgG4 backbone; copies: 2 + 2
koff (human beta-Klotho (KLB)): 1e-07 s⁻¹
Mean E max (%) [1]: 103%
Mean EC50 [1]: 146 pM

B6: 16H7 variant, light chain P54K (antibody, human IgG4 S228P, lambda, V domains shown)
VH: not shown
VL: B1 VL with K25N, P54K
notes: IgG4 backbone
koff (human beta-Klotho (KLB)): 0.00016 s⁻¹
Mean E max (%) [1]: 100%
Mean EC50 [1]: 131 pM

B7: 16H7 variant, light chain N25L (antibody, human IgG4 S228P, lambda, V domains shown)
VH: not shown
VL: B1 VL with K25L
notes: IgG4 backbone
koff (human beta-Klotho (KLB)): 1.2e-05 s⁻¹
Mean E max (%) [1]: 109%
Mean EC50 [1]: 134 pM

B8: 16H7 variant, light chain N25M (antibody, human IgG4 S228P, lambda, V domains shown)
VH: not shown
VL: B1 VL with K25M
notes: IgG4 backbone
koff (human beta-Klotho (KLB)): 3.1e-06 s⁻¹
Mean E max (%) [1]: 102%
Mean EC50 [1]: 131 pM

B9: 16H7 variant, light chain N26F (antibody, human IgG4 S228P, lambda, V domains shown)
VH: not shown
VL: B1 VL with K25N, N26F
notes: IgG4 backbone
koff (human beta-Klotho (KLB)): 5.4e-05 s⁻¹
Mean E max (%) [1]: 95%
Mean EC50 [1]: 158 pM

B10: 16H7 variant, light chain P54H (antibody, human IgG4 S228P, lambda, V domains shown)
VH: not shown
VL: B1 VL with K25N, P54H
notes: IgG4 backbone
koff (human beta-Klotho (KLB)): 0.00014 s⁻¹
Mean E max (%) [1]: 100%
Mean EC50 [1]: 111 pM

B11: 16H7 variant, light chain P54C (antibody, human IgG4 S228P, lambda, V domains shown)
VH: not shown
VL: B1 VL with K25N, P54C
notes: IgG4 backbone
koff (human beta-Klotho (KLB)): 0.00012 s⁻¹
Mean E max (%) [1]: 100%
Mean EC50 [1]: 116 pM

B12: 16H7 variant, light chain N26K (antibody, human IgG4 S228P, lambda, V domains shown)
VH: not shown
VL: B1 VL with K25N, N26K
notes: IgG4 backbone
koff (human beta-Klotho (KLB)): 1e-07 s⁻¹
Mean E max (%) [1]: 104%
Mean EC50 [1]: 143 pM

B13: 16H7 variant, light chain N26D (antibody, IgG4, V domains shown)
VH: not shown
VL: B1 VL with K25N, N26D
notes: IgG4 backbone; copies: 2 + 2
koff (human beta-Klotho (KLB)): 5.6e-05 s⁻¹
Mean E max (%) [1]: 101%
Mean EC50 [1]: 123 pM

B14: 16H7 variant, light chain P54N (antibody, human IgG4 S228P, lambda, V domains shown)
VH: not shown
VL: B1 VL with K25N, P54N
notes: IgG4 backbone
koff (human beta-Klotho (KLB)): 0.00014 s⁻¹
Mean E max (%) [1]: 105%
Mean EC50 [1]: 150 pM

B15: 16H7 variant, light chain N25R (antibody, human IgG4 S228P, lambda, V domains shown)
VH: not shown
VL: B1 VL with K25R
notes: IgG4 backbone
koff (human beta-Klotho (KLB)): 4.1e-05 s⁻¹
Mean E max (%) [1]: 104%
Mean EC50 [1]: 178 pM

B16: 16H7 variant, light chain N26H (antibody, human IgG4 S228P, lambda, V domains shown)
VH: not shown
VL: B1 VL with K25N, N26H
notes: IgG4 backbone
koff (human beta-Klotho (KLB)): 3.5e-05 s⁻¹
Mean E max (%) [1]: 112%
Mean EC50 [1]: 138 pM

B17: 16H7 variant, light chain N25W (antibody, human IgG4 S228P, lambda, V domains shown)
VH: not shown
VL: B1 VL with K25W
notes: IgG4 backbone
koff (human beta-Klotho (KLB)): 1e-07 s⁻¹
Mean E max (%) [1]: 99%
Mean EC50 [1]: 99 pM

B18: 16H7 variant, light chain N26L (antibody, human IgG4 S228P, lambda, V domains shown)
VH: not shown
VL: B1 VL with K25N, N26L
notes: IgG4 backbone
koff (human beta-Klotho (KLB)): 4.4e-05 s⁻¹
Mean E max (%) [1]: 103%
Mean EC50 [1]: 131 pM

B19: 16H7 variant, light chain N26V (antibody, human IgG4 S228P, lambda, V domains shown)
VH: not shown
VL: B1 VL with K25N, N26V
notes: IgG4 backbone
koff (human beta-Klotho (KLB)): 3.5e-05 s⁻¹
Mean E max (%) [1]: 106%
Mean EC50 [1]: 118 pM

B20: 16H7 variant, light chain N26P (antibody, human IgG4 S228P, lambda, V domains shown)
VH: not shown
VL: B1 VL with K25N, N26P
notes: IgG4 backbone
koff (human beta-Klotho (KLB)): 5.1e-05 s⁻¹
Mean E max (%) [1]: 100%
Mean EC50 [1]: 99 pM

B21: 16H7 variant, light chain P54D (antibody, human IgG4 S228P, lambda, V domains shown)
VH: not shown
VL: B1 VL with K25N, P54D
notes: IgG4 backbone
koff (human beta-Klotho (KLB)): 0.00028 s⁻¹
Mean E max (%) [1]: 96%
Mean EC50 [1]: 115 pM

B22: 16H7 variant, light chain N26Y (antibody, human IgG4 S228P, lambda, V domains shown)
VH: not shown
VL: B1 VL with K25N, N26Y
notes: IgG4 backbone
koff (human beta-Klotho (KLB)): 3.7e-05 s⁻¹
Mean E max (%) [1]: 110%
Mean EC50 [1]: 124 pM

B23: 16H7 variant, light chain N26R (antibody, human IgG4 S228P, lambda, V domains shown)
VH: not shown
VL: B1 VL with K25N, N26R
notes: IgG4 backbone
koff (human beta-Klotho (KLB)): 2.5e-05 s⁻¹
Mean E max (%) [1]: 110%
Mean EC50 [1]: 205 pM

B24: 16H7 variant, light chain P54L (antibody, human IgG4 S228P, lambda, V domains shown)
VH: not shown
VL: B1 VL with K25N, P54L
notes: IgG4 backbone
koff (human beta-Klotho (KLB)): 9.6e-05 s⁻¹
Mean E max (%) [1]: 108%
Mean EC50 [1]: 133 pM

B25: 16H7 variant, light chain N26E (antibody, human IgG4 S228P, lambda, V domains shown)
VH: not shown
VL: B1 VL with K25N, N26E
notes: IgG4 backbone
koff (human beta-Klotho (KLB)): 7.2e-05 s⁻¹
Mean E max (%) [1]: 106%
Mean EC50 [1]: 106 pM

B26: 16H7 variant, light chain N25S (antibody, human IgG4 S228P, lambda, V domains shown)
VH: not shown
VL: B1 VL with K25S
notes: IgG4 backbone
koff (human beta-Klotho (KLB)): 4.4e-05 s⁻¹
Mean E max (%) [1]: 98%
Mean EC50 [1]: 131 pM

B27: 16H7 variant, light chain N26A (antibody, human IgG4 S228P, lambda, V domains shown)
VH: not shown
VL: B1 VL with K25N, N26A
notes: IgG4 backbone
koff (human beta-Klotho (KLB)): 4.6e-06 s⁻¹
Mean E max (%) [1]: 98%
Mean EC50 [1]: 106 pM

B28: 16H7 variant, light chain N26G (antibody, human IgG4 S228P, lambda, V domains shown)
VH: not shown
VL: B1 VL with K25N, N26G
notes: IgG4 backbone
koff (human beta-Klotho (KLB)): 3.7e-05 s⁻¹
Mean E max (%) [1]: 94%
Mean EC50 [1]: 97 pM

B29: 16H7 variant, light chain N26I (antibody, IgG4, V domains shown)
VH: not shown
VL: B1 VL with K25N, N26I
notes: IgG4 backbone; copies: 2 + 2
koff (human beta-Klotho (KLB)): 6.3e-05 s⁻¹
Mean E max (%) [1]: 110%
Mean EC50 [1]: 113 pM

B30: 16H7 variant, light chain N26Q (antibody, IgG4, V domains shown)
VH: not shown
VL: B1 VL with K25N, N26Q
notes: IgG4 backbone; copies: 2 + 2
koff (human beta-Klotho (KLB)): 1e-07 s⁻¹
Mean E max (%) [1]: 109%
Mean EC50 [1]: 119 pM

B31: 16H7 variant, light chain N25T (antibody, human IgG4 S228P, lambda, V domains shown)
VH: not shown
VL: B1 VL with K25T
notes: IgG4 backbone
koff (human beta-Klotho (KLB)): 2.3e-05 s⁻¹
Mean E max (%) [1]: 111%
Mean EC50 [1]: 117 pM

B32: 16H7 variant, light chain P54I (antibody, human IgG4 S228P, lambda, V domains shown)
VH: not shown
VL: B1 VL with K25N, P54I
notes: IgG4 backbone
koff (human beta-Klotho (KLB)): 3.5e-05 s⁻¹
Mean E max (%) [1]: 112%
Mean EC50 [1]: 115 pM

B33: 16H7 variant, light chain N26W (antibody, IgG4, V domains shown)
VH: not shown
VL: B1 VL with K25N, N26W
notes: IgG4 backbone; copies: 2 + 2
koff (human beta-Klotho (KLB)): 6.7e-05 s⁻¹
Mean E max (%) [1]: 105%
Mean EC50 [1]: 129 pM

B34: 16H7 variant, light chain N25Q (antibody, human IgG4 S228P, lambda, V domains shown)
VH: not shown
VL: B1 VL with K25Q
notes: IgG4 backbone
koff (human beta-Klotho (KLB)): 1e-07 s⁻¹
Mean E max (%) [1]: 102%
Mean EC50 [1]: 96 pM

B35: 16H7 variant, light chain N25P (antibody, human IgG4 S228P, lambda, V domains shown)
VH: not shown
VL: B1 VL with K25P
notes: IgG4 backbone
koff (human beta-Klotho (KLB)): 1.2e-05 s⁻¹
Mean E max (%) [1]: 106%
Mean EC50 [1]: 132 pM

B36: 16H7 variant, light chain P54G (antibody, human IgG4 S228P, lambda, V domains shown)
VH: not shown
VL: B1 VL with K25N, P54G
notes: IgG4 backbone
koff (human beta-Klotho (KLB)): 5.1e-05 s⁻¹
Mean E max (%) [1]: 114%
Mean EC50 [1]: 141 pM

B37: 16H7 variant, light chain N26M (antibody, human IgG4 S228P, lambda, V domains shown)
VH: not shown
VL: B1 VL with K25N, N26M
notes: IgG4 backbone
koff (human beta-Klotho (KLB)): 2.2e-05 s⁻¹
Mean E max (%) [1]: 111%
Mean EC50 [1]: 153 pM

B38: 16H7 variant, light chain P54M (antibody, human IgG4 S228P, lambda, V domains shown)
VH: not shown
VL: B1 VL with K25N, P54M
notes: IgG4 backbone
koff (human beta-Klotho (KLB)): 3.2e-05 s⁻¹
Mean E max (%) [1]: 98%
Mean EC50 [1]: 87 pM

B39: 16H7 variant, light chain N25V (antibody, human IgG4 S228P, lambda, V domains shown)
VH: not shown
VL: B1 VL with K25V
notes: IgG4 backbone
koff (human beta-Klotho (KLB)): 3.2e-05 s⁻¹
Mean E max (%) [1]: 106%
Mean EC50 [1]: 121 pM
